Here are results for 38 molecules from PMC11446282.

Residue numbers refer to the chain shown, from its start.

This test deals with PP2A-B55α. Put plainly: Single alanine mutational scan, YFP-tagged interactors immunoprecipitated from HeLa cells, Western blot. The test is classed as binding, human. On the procedure: Standard cloning techniques were used throughout. Point mutations were introduced by whole plasmid polymerase chain reaction (PCR). All constructs were fully sequenced. Synthetic DNA was purchased from GeneArt, Life Technologies and cloned into pcDNA5/FRT/TO (Invitrogen) expression vector containing YFP, resulting in the indicated YFP fusion proteins. These constructs were transiently transfected into HeLa cells 24 hours before harvesting cells. Cells were lysed in lysis buffer [50 mM tris-HCl (pH 7.5), 50 mM NaCl, 1 mM EDTA, 1 mM […], and 0.1% NP-40]. Complexes were immunoprecipitated at 4°C in lysis buffer with green fluorescent protein (GFP)–Trap (ChromoTek) and washed in lysis buffer. Precipitated protein complexes were washed three times in lysis buffer, eluted in 2× SDS sample buffer, and subjected to Western blotting or MS as indicated.
For orientation: Immunoblotting shows a protein as a band on a membrane.

[1] abbreviates: single alanine mutant of YFP-tagged IER2.
The mark [2] stands for this setting: single alanine mutant of YFP-tagged CDCA4.
Setting [3] is: single alanine mutant of YFP-tagged RBM7.

B1: IER2 R29: IER2, R29 to alanine (protein, UniProt Q9BTL4 1-223, looked up, variant R29A)
Immediate early response gene …: MEVQKEAQRIMTLSVWKMYHSRMQRGGLALHRSLQLSLVMRSARELYLSAKVEALEPEVSLPAALPSDPRLHPPREAESTAETATPDGEHPFPEPMDTQEAPTAEETSACCAPRPAKVSRKRRSSSLSDGGDAGLVPSKKARLEEKEEEEGASSEVADRLQPPPAQAEGAFPNLARVLQRRFSGLLNCSPAAPPTAPPACEAKPACRPADSMLNVLVRAVVAF
Turning to B1, the Experimental % binding under setting [1] is on record as 90%.

B2: IER2 S37: IER2, S37 to alanine (protein, UniProt Q9BTL4 1-223, looked up, variant S37A)
Immediate early response gene …: B1 Immediate early response gene … with A29R, S37A
The molecule B2 came in with an Experimental % binding under setting [1] of 62%.

B3: IER2 Q35: IER2, Q35 to alanine (protein, UniProt Q9BTL4 1-223, looked up, variant Q35A)
Immediate early response gene …: B1 Immediate early response gene … with A29R, Q35A
Turning to B3, the Experimental % binding under setting [1] is 67%.

B4: IER2 R32: IER2, R32 to alanine (protein, UniProt Q9BTL4 1-223, looked up, variant R32A)
Immediate early response gene …: B1 Immediate early response gene … with A29R, R32A
B4 came in with an Experimental % binding under setting [1] of 70%.

B5: IER2 S33: IER2, S33 to alanine (protein, UniProt Q9BTL4 1-223, looked up, variant S33A)
Immediate early response gene …: B1 Immediate early response gene … with A29R, S33A
For the molecule B5, the Experimental % binding under setting [1] is 58%.

B6: IER2 L36: IER2, L36 to alanine (protein, UniProt Q9BTL4 1-223, looked up, variant L36A)
Immediate early response gene …: B1 Immediate early response gene … with A29R, L36A
For the molecule B6, the Experimental % binding under setting [1] is recorded as 66%.

B7: IER2 L34: IER2, L34 to alanine (protein)
chain: B1 Immediate early response gene … with A29R, L34A
In the case of B7, under setting [1], the Experimental % binding is listed as 74%.

B8: IER2 L30: IER2, L30 to alanine (protein)
chain: B1 Immediate early response gene … with A29R, L30A
B8 displayed an Experimental % binding under setting [1] of 81%.

B9: IER2 T12: IER2, T12 to alanine (protein, UniProt Q9BTL4 1-223, looked up, variant T12A)
Immediate early response gene …: B1 Immediate early response gene … with T12A, A29R
B9 showed an Experimental % binding under setting [1] of 94%.

B10: IER2 H31: IER2, H31 to alanine (protein, UniProt Q9BTL4 1-223, looked up, variant H31A)
Immediate early response gene …: B1 Immediate early response gene … with A29R, H31A
Consider B10, for which the Experimental % binding under setting [1] turned out to be 61%.

B11: IER2 L13: IER2, L13 to alanine (protein, UniProt Q9BTL4 1-223, looked up, variant L13A)
Immediate early response gene …: B1 Immediate early response gene … with L13A, A29R
In the case of B11, the Experimental % binding under setting [1] is listed as 80%.

B12: IER2 R9: IER2, R9 to alanine (protein, UniProt Q9BTL4 1-223, looked up, variant R9A)
Immediate early response gene …: B1 Immediate early response gene … with R9A, A29R
As to B12, the Experimental % binding under setting [1] was found to be 78%.

B13: IER2 M11: IER2, M11 to alanine (protein, UniProt Q9BTL4 1-223, looked up, variant M11A)
Immediate early response gene …: B1 Immediate early response gene … with M11A, A29R
Under setting [1], B13 yielded an Experimental % binding of 81%.

B14: IER2 Q8: IER2, Q8 to alanine (protein, UniProt Q9BTL4 1-223, looked up, variant Q8A)
Immediate early response gene …: B1 Immediate early response gene … with Q8A, A29R
B14 yielded an Experimental % binding under setting [1] of 90%.

B15: IER2 I10: IER2, I10 to alanine (protein, UniProt Q9BTL4 1-223, looked up, variant I10A)
Immediate early response gene …: B1 Immediate early response gene … with I10A, A29R
B15: the Experimental % binding under setting [1] is 81%.

B16: CDCA4 K44: CDCA4, K44 to alanine (protein, UniProt Q9BXL8 1-241, looked up, variant K44A)
Cell division …: MFARGLKRKCVGHEEDVEGALAGLKTVSSYSLQRQSLLDMSLVALQLCHMLVEPNLCRSVLIANTVRQIQEEMTQDGTWRTVAPQAAERAPLDRLVSTEILCRAAWGQEGAHPAPGLGDGHTQGPVSDLCPVTSAQAPRHLQSSAWEMDGPRENRGSFHKSLDQIFETLETKNPSCMEELFSDVDSPYYDLDTVLTGMMGGARPGPCEGLEGLAPATPGPSSSCKSDLGELDHVVEILVET
B16 showed an Experimental % binding under setting [2] of 22%.

B17: CDCA4 R58: CDCA4, R58 to alanine (protein, UniProt Q9BXL8 1-241, looked up, variant R58A)
Cell division …: B16 Cell division … with A44K, R58A
Under setting [2], B17 had an Experimental % binding of 37%.

B18: CDCA4 C57: CDCA4, C57 to alanine (protein, UniProt Q9BXL8 1-241, looked up, variant C57A)
Cell division …: B16 Cell division … with A44K, C57A
Regarding B18, the Experimental % binding under setting [2] is 91%.

B19: CDCA4 Q46: CDCA4, Q46 to alanine (protein, UniProt Q9BXL8 1-241, looked up, variant Q46A)
Cell division …: B16 Cell division … with A44K, Q46A
Take B19: the Experimental % binding under setting [2] amounted to 61%.

B20: CDCA4 P54: CDCA4, P54 to alanine (protein, UniProt Q9BXL8 1-241, looked up, variant P54A)
Cell division …: B16 Cell division … with A44K, P54A
Under setting [2], B20 came in with an Experimental % binding of 66%.

B21: CDCA4 L45: CDCA4, L45 to alanine (protein, UniProt Q9BXL8 1-241, looked up, variant L45A)
Cell division …: B16 Cell division … with A44K, L45A
Molecule B21 gave an Experimental % binding under setting [2] of 86%.

B22: CDCA4 V52: CDCA4, V52 to alanine (protein, UniProt Q9BXL8 1-241, looked up, variant V52A)
Cell division …: B16 Cell division … with A44K, V52A
B22: the Experimental % binding under setting [2] came to 82%.

B23: CDCA4 L56: CDCA4, L56 to alanine (protein, UniProt Q9BXL8 1-241, looked up, variant L56A)
Cell division …: B16 Cell division … with A44K, L56A
For B23, the Experimental % binding under setting [2] worked out at 42%.

B24: CDCA4 E53: CDCA4, E53 to alanine (protein, UniProt Q9BXL8 1-241, looked up, variant E53A)
Cell division …: B16 Cell division … with A44K, E53A
As to B24, the Experimental % binding under setting [2] is 153%.

B25: CDCA4 N55: CDCA4, N55 to alanine (protein, UniProt Q9BXL8 1-241, looked up, variant N55A)
Cell division …: B16 Cell division … with A44K, N55A
Under setting [2], B25 came in with an Experimental % binding of 99%.

B26: RBM7 M147: RBM7, M147 to alanine (protein, UniProt Q9Y580 2-266, looked up, variant M147A)
RNA-binding protein 7: GAAAAEADRTLFVGNLETKVTEELLFELFHQAGPVIKVKIPKDKDGKPKQFAFVNFKHEVSVPYAMNLLNGIKLYGRPIKIQFRSGSSHAPQDVSLSYPQHHVGNSSPTSTSPSRYERTMDNMTSSAQIIQRSFSSPENFQRQAVANSALRQMSYGGKFGSSPLDQSGFSPSVQSHSHSFNQSSSSQWRQGTPSSQRKVRMNSYPYLADRHYSREQRYTDHGSDHHYRGKRDDFFYEDRNHDDWSHDYDNRRDSSRDGKWRSSRH
Molecule B26 came in with an Experimental % binding under setting [3] of 9%.

B27: RBM7 Q142: RBM7, Q142 to alanine (protein, UniProt Q9Y580 2-266, looked up, variant Q142A)
RNA-binding protein 7: B26 RNA-binding protein 7 with Q141A, A146M
Under setting [3], B27 displayed an Experimental % binding of 67%.

B28: RBM7 Q153: RBM7, Q153 to alanine (protein, UniProt Q9Y580 2-266, looked up, variant Q153A)
RNA-binding protein 7: B26 RNA-binding protein 7 with A146M, Q152A
With B28, the Experimental % binding under setting [3] is given as 131%.

B29: RBM7 N140: RBM7, N140 to alanine (protein, UniProt Q9Y580 2-266, looked up, variant N140A)
RNA-binding protein 7: B26 RNA-binding protein 7 with N139A, A146M
As for B29, the Experimental % binding under setting [3] came out at 5%.

B30: RBM7 V146: RBM7, V146 to alanine (protein, UniProt Q9Y580 2-266, looked up, variant V146A)
RNA-binding protein 7: B26 RNA-binding protein 7 with V145A, A146M
B30 yielded an Experimental % binding under setting [3] of 7%.

B31: RBM7 E139: RBM7, E139 to alanine (protein, UniProt Q9Y580 2-266, looked up, variant E139A)
RNA-binding protein 7: B26 RNA-binding protein 7 with E138A, A146M
Take B31: under setting [3], the Experimental % binding came to 77%.

B32: RBM7 S149: RBM7, S149 to alanine (protein, UniProt Q9Y580 2-266, looked up, variant S149A)
RNA-binding protein 7: B26 RNA-binding protein 7 with A146M, S148A
B32 had an Experimental % binding under setting [3] of 109%.

B33: RBM7 R152: RBM7, R152 to alanine (protein, UniProt Q9Y580 2-266, looked up, variant R152A)
RNA-binding protein 7: B26 RNA-binding protein 7 with A146M, R151A
B33 came in with an Experimental % binding under setting [3] of 62%.

B34: RBM7 N148: RBM7, N148 to alanine (protein, UniProt Q9Y580 2-266, looked up, variant N148A)
RNA-binding protein 7: B26 RNA-binding protein 7 with A146M, N147A
In the case of B34, the Experimental % binding under setting [3] stood at 29%.

B35: RBM7 P138: RBM7, P138 to alanine (protein, UniProt Q9Y580 2-266, looked up, variant P138A)
RNA-binding protein 7: B26 RNA-binding protein 7 with P137A, A146M
Consider B35, for which the Experimental % binding under setting [3] turned out to be 92%.

B36: RBM7 L151: RBM7, L151 to alanine (protein, UniProt Q9Y580 2-266, looked up, variant L151A)
RNA-binding protein 7: B26 RNA-binding protein 7 with A146M, L150A
Under setting [3], B36 showed an Experimental % binding of 47%.

B37: RBM7 F141: RBM7, F141 to alanine (protein, UniProt Q9Y580 2-266, looked up, variant F141A)
RNA-binding protein 7: B26 RNA-binding protein 7 with F140A, A146M
On to B37, for which, under setting [3], the Experimental % binding is given as 4%.

B38: RBM7 R143: RBM7, R143 to alanine (protein, UniProt Q9Y580 2-266, looked up, variant R143A)
RNA-binding protein 7: B26 RNA-binding protein 7 with R142A, A146M
As for B38, under setting [3], the Experimental % binding was 5%.
